The source of these data is paper PMC5144075.

The target in assay [1] is 16A-cys(i)-less (TMEM16A with all cysteines of the cytosolic portion replaced with serines). As to the kind of experiment: cross-linking; harvested transfected HEK-293 cells in PBS with 300 uM 1,5-pentanediyl bismethanethiosulfonate, 15 min, room temperature; stopped with Laemmli buffer or reversed with 33 mM DTT; SDS-PAGE and Western blot with SP31 antibody. On the technique in general: In western blotting, separated proteins are transferred to a membrane and probed.

In assay [2] the target is 16A-cys(i)-less R494C/K921C. The assay is described as above.
The target in assay [3] is TMEM16A fused to a fluorescent protein (eGFP-TMEM16A, TMEM16A-eGFP, TMEM16A-mCherry). Briefly: FRET or BRET; acceptor photobleaching FRET, confocal microscope, HEK-293 cells co-transfected with eGFP-TMEM16A (donor) and TMEM16A-mCherry (acceptor): NT-CT configuration. For orientation: In BRET a luciferase serves as donor, and the signal depends on an acceptor being close.

Sequence of TMEM16A fused to a fluorescent protein (eGFP-TMEM16A, TMEM16A-eGFP, TMEM16A-mCherry) (Q5XXA6 whole entry, the tested form may be a part): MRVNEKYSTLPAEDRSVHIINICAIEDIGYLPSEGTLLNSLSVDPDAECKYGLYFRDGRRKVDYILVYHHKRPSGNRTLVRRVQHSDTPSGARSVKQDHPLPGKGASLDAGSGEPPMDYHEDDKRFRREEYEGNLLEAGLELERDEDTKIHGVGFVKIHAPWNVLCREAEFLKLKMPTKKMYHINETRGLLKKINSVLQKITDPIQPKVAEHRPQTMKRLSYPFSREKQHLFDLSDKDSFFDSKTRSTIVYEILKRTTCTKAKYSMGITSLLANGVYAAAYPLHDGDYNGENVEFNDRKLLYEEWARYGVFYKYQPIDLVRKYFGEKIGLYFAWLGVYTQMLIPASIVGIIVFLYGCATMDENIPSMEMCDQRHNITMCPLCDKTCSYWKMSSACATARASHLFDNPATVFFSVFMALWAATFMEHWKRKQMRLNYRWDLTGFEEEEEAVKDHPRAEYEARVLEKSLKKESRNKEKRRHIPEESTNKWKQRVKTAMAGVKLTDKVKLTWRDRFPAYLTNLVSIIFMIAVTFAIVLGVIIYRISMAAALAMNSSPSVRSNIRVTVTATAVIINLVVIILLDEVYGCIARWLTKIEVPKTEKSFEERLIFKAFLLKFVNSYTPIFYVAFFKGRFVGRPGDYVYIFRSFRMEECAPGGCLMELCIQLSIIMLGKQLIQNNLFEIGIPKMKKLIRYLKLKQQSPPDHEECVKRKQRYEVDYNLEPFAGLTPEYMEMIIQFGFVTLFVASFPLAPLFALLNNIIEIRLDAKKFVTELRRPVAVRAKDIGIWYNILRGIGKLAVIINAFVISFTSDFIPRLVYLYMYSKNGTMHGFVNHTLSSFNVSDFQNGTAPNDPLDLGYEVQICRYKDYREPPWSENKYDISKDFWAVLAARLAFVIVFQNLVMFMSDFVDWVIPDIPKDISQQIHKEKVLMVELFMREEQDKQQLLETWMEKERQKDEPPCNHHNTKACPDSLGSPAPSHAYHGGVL

Take “16A-cys(i)-less (TMEM16A with all cysteines of the cytosolic portion replaced with serines) (natural protein)”: the stoichiometry N in assay [1] is 2.
With “16A-cys(i)-less R494C/K921C (natural protein)”, the stoichiometry N in assay [2] was 2.
Consider “TMEM16A fused to a fluorescent protein (eGFP-TMEM16A, TMEM16A-eGFP, TMEM16A-mCherry) (natural protein)”, for which the FRET efficiency in assay [3] is 7.44%.

A word on the stoichiometry N: it is the number of molecules, sites or subunits per partner or assembly.
